Test results taken from article PMC6126693.

Tested on: ZIC2 zinc finger domains (five ZnF)
Assay: ITC
Conditions: ITC: 300 mM NaCl, 50 mM potassium phosphate, pH 8.0, 25 C, EMSA: binding buffer not specified, 30 min 37 C, 6% PAGE 1x TBE 4 C

Substance	Ka (RNA 60 uM into protein 5 uM)	Ka
antisense PCAT92 RNA	1e+06 M⁻¹	
sense PCAT92 RNA (predicted ZIC2-binding region)		1e+09 M⁻¹
